# Reference: PMC5375031 (Nature, 2017)
# Where no end group is shown, it is not given here.
# B1: HIF-1α 776-826 C800V labeled with Alexa Fluor 594 at position 780 (peptide, UniProt Q16665 776-826, looked up)
# chain: SDLAC(Alexa Fluor 594)RLLGQSMDESGLPQLTSYDVEVNAPIQGSRNLLQGEELLRALDQVN
# B2: HIF-1α C-terminal transactivation domain peptide (residues 776-826) (peptide, UniProt Q16665 776-826, looked up)
# chain: SDLACRLLGQSMDESGLPQLTSYDCEVNAPIQGSRNLLQGEELLRALDQVN
# B3: HIF-1α 776-826 C800V labeled with Alexa Fluor 488 at position 780 (peptide, UniProt Q16665 776-826, looked up)
# chain: SDLAC(Alexa Fluor 488)RLLGQSMDESGLPQLTSYDVEVNAPIQGSRNLLQGEELLRALDQVN
# B4: CITED2 transactivation domain peptide (residues 216-269) (peptide, UniProt Q99967 216-269, looked up)
# chain: NVIDTDFIDEEVLMSLVIEMGLDRIKELPELWLGQNEFDFMTDFVCKQQPSRVS
# B5: CITED2 216-269 labeled with Alexa Fluor 594 at Cys 261 (peptide, UniProt Q99967 216-269, looked up)
# chain: NVIDTDFIDEEVLMSLVIEMGLDRIKELPELWLGQNEFDFMTDFVC(Alexa Fluor 594)KQQPSRVS
# Columns and labels:
# [1] = molecular target: T1, TAZ1 domain of CBP (residues 340-439 of mouse CBP) (mouse, UniProt P45481 340-439); experiment: fluorescence polarisation
# [2] = molecular target: T1, TAZ1 domain of CBP (residues 340-439 of …); experiment: fluorescence polarisation + BLI
# [3] = molecular target: T1, TAZ1 domain of CBP (residues 340-439 of …); experiment: stopped-flow fluorescence
# [4] = molecular target: T1, TAZ1 domain of CBP (residues 340-439 of …); experiment: fluorescence polarisation; remark: listed apart in the source
# T1 sequence (P45481 340-439): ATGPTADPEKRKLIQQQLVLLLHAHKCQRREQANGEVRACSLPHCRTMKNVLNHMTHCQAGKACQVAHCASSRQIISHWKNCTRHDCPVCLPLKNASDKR
binder,measurement,setting,value
B1,binding result,[1],binds
B2,Kd,[2],10 nM
same,apparent Kd (displacing labeled HIF-1α from TAZ1),[1],10 ± 1 nM
B3,binding result,[3],binds
B4,Kd,[2],10 nM
B5,binding result,[4],binds
